Residue numbers refer to the chain shown, from its start.
B1: Hab015VL5VH1a-hFc (scFv, part only; not given: scFv linker and human IgG1 Fc, V domains shown, not shown: another chain or arm of the molecule; a dimerising Fc or GST; small tags and cut ends)
VL: NIQMTQSPSSLSASVGDRVTITCKASENVGTYVSWYQQKPGKSPKLLIYGASNRYTGVPSRFSGSGSGTDFTLTISSLQPEDFATYYCGQFYSFPSTFGGGTKVEIK
VH: EVQLVESGGGLVKPGGSLRLSCAASGITFSNFWMNWVRQAPGKGLEWVGQIRLKSDDYATHYAESVKGRFTISREDSKNTVYLQMNSLKTEDTAVYYCTTGYYFDYWGQGTTVTVSS
B2: Hab015VL5VH5a-hFc (scFv, part only; not given: scFv linker and human IgG1 Fc, V domains shown, not shown: another chain or arm of the molecule; a dimerising Fc or GST; small tags and cut ends)
VL: B1 VL
VH: B1 VH with A23V
B3: Hab015VL5VH6a-hFc (scFv, part only; not given: scFv linker and human IgG1 Fc, V domains shown, not shown: another chain or arm of the molecule; a dimerising Fc or GST; small tags and cut ends)
VL: B1 VL
VH: B1 VH with G42E
B4: Hab015VL5VH1b-hFc (scFv, part only; not given: VL-VH linker and human IgG1 Fc, V domains shown, not shown: another chain or arm of the molecule; a dimerising Fc or GST; small tags and cut ends)
VL: B1 VL
VH: B1 VH with D56E

target: human delta-like ligand 3 (DLL3) on SHP77 cells (human) (UniProt Q9NYJ7); test: FACS on SHP77 cells
Sequence (Q9NYJ7 27-618, stated change not applied): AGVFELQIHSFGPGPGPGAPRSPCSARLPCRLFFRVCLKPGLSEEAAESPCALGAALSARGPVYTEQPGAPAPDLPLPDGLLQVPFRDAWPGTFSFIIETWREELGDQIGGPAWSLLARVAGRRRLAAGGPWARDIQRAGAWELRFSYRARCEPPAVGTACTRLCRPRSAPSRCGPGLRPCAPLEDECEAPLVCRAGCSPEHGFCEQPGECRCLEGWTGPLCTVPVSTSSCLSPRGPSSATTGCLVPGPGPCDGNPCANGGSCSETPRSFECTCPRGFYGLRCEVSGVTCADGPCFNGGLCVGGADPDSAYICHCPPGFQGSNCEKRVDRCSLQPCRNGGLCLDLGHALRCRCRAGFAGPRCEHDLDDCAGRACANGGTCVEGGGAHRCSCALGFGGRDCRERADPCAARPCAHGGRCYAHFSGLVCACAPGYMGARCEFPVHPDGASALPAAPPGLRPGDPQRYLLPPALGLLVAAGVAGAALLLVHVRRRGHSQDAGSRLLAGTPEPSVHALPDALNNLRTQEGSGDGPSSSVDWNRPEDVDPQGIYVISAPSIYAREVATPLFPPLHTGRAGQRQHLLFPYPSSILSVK

Binder	MFI at 0.00128 nM [MFI]	MFI at 0.0064 nM [MFI]	MFI at 0.032 nM [MFI]	MFI at 0.16 nM [MFI]	MFI at 0.8 nM [MFI]	MFI at 4 nM [MFI]	MFI at 20 nM [MFI]	MFI at 100 nM [MFI]
B1	102	122	185	343	612	768	907	1140
B2	106	122	189	405	666	785	876	1060
B3	101	117	171	362	663	726	770	1090
B4	102	118	178	356	632	714	844	1030

target: DLL3 endogenously expressed on NCI-H82 cells (UniProt Q9NYJ7); test: FACS on NCI-H82 cells; antibody 4 nM
Sequence (Q9NYJ7 27-618): as the sequence (Q9NYJ7 27-618, stated change not applied) above

Binder	MFI
B1	867
B2	848
B3	827
B4	745

target: DLL3 endogenously expressed on NCI-H82 cells (UniProt Q9NYJ7); test: FACS on NCI-H82 cells; antibody 20 nM

Binder	MFI
B1	1100
B2	929
B3	937
B4	838

target: DLL3 endogenously expressed on NCI-H82 cells (UniProt Q9NYJ7); test: FACS on NCI-H82 cells; antibody 0.8 nM

Binder	MFI
B1	811
B2	779
B3	755
B4	711

target: DLL3 endogenously expressed on NCI-H82 cells (UniProt Q9NYJ7); test: FACS on NCI-H82 cells; antibody 100 nM

Binder	MFI
B1	1220
B2	1110
B3	1220
B4	983

target: DLL3 endogenously expressed on NCI-H82 cells (UniProt Q9NYJ7); test: FACS on NCI-H82 cells; antibody 0.16 nM

Binder	MFI
B1	478
B2	473
B3	430
B4	426

target: human DLL3 protein expressed on CHO-K1 recombinant cells (human DLL3 extracellular segment fused to EpCAM transmembrane and intracellular regions) (human) (UniProt Q9NYJ7); test: FACS, CHO-K1 hDLL3 cells, 4 nM antibody
Sequence (Q9NYJ7 other isoform, or with tags, fused parts or gaps limits assumed): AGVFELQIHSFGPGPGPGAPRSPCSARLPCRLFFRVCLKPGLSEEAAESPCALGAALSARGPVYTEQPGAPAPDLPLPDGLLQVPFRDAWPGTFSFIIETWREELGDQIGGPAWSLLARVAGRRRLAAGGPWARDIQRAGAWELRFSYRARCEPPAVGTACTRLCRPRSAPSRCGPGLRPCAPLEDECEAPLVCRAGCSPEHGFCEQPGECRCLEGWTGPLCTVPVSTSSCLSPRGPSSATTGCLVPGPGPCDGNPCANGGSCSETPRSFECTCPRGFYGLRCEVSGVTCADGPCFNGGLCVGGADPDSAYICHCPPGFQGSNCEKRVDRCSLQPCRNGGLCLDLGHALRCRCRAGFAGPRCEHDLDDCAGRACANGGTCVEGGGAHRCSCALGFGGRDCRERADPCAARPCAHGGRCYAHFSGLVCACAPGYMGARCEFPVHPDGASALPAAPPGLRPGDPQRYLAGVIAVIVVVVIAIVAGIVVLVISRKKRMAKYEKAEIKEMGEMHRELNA

Binder	MFI [MFI]
B1	10600
B2	10700
B3	9720
B4	10300

target: mouse DLL3 on CHO-K1-mDLL3 cells (mouse) (UniProt O88516); test: FACS, CHO-K1-mDLL3 cells, 4 nM antibody
Sequence (O88516 other isoform, or with tags, fused parts or gaps limits assumed): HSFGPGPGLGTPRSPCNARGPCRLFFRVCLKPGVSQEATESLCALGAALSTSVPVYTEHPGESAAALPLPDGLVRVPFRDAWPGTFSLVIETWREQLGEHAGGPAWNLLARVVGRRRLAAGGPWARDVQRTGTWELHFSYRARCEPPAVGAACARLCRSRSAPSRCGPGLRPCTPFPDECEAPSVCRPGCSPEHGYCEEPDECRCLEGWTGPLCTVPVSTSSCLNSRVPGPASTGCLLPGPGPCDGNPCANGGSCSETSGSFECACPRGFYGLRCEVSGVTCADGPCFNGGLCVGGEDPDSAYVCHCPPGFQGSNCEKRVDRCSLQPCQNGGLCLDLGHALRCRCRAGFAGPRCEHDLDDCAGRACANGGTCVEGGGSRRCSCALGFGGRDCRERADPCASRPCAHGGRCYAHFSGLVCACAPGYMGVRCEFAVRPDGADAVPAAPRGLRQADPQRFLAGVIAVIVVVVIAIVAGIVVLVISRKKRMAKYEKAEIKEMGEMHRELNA

Binder	MFI [MFI]
B1	1200
B2	1240
B3	1230
B4	1160

target: DLL3 endogenously expressed on NCI-H82 cells (UniProt Q9NYJ7); test: FACS on NCI-H82 cells; antibody 0.032 nM

Binder	MFI
B1	219
B2	230
B3	216
B4	212

target: human DLL3 protein expressed on CHO-K1 recombinant cells (human DLL3 extracellular segment fused to EpCAM transmembrane and intracellular regions) (human) (UniProt Q9NYJ7); test: FACS, CHO-K1 hDLL3 cells, 20 nM antibody

Binder	MFI [MFI]
B1	11800
B2	12000
B3	10900
B4	11500

target: mouse DLL3 on CHO-K1-mDLL3 cells (mouse) (UniProt O88516); test: FACS, CHO-K1-mDLL3 cells, 20 nM antibody

Binder	MFI [MFI]
B1	1290
B2	1440
B3	1410
B4	1350

target: DLL3 endogenously expressed on NCI-H82 cells (UniProt Q9NYJ7); test: FACS on NCI-H82 cells; antibody 0.0064 nM

Binder	MFI
B1	137
B2	139
B3	127
B4	139

target: human DLL3 protein expressed on CHO-K1 recombinant cells (human DLL3 extracellular segment fused to EpCAM transmembrane and intracellular regions) (human) (UniProt Q9NYJ7); test: FACS, CHO-K1 hDLL3 cells, 0.8 nM antibody

Binder	MFI [MFI]
B1	4310
B2	4640
B3	3960
B4	4100

target: human DLL3 protein expressed on CHO-K1 recombinant cells (human DLL3 extracellular segment fused to EpCAM transmembrane and intracellular regions) (human) (UniProt Q9NYJ7); test: FACS, CHO-K1 hDLL3 cells, 100 nM antibody

Binder	MFI [MFI]
B1	12000
B2	12000
B3	11300
B4	11800

target: mouse DLL3 on CHO-K1-mDLL3 cells (mouse) (UniProt O88516); test: FACS, CHO-K1-mDLL3 cells, 0.8 nM antibody

Binder	MFI [MFI]
B1	922
B2	953
B3	870
B4	884

target: mouse DLL3 on CHO-K1-mDLL3 cells (mouse) (UniProt O88516); test: FACS, CHO-K1-mDLL3 cells, 100 nM antibody

Binder	MFI [MFI]
B1	1550
B2	1580
B3	1530
B4	1460

target: DLL3 endogenously expressed on NCI-H82 cells (UniProt Q9NYJ7); test: FACS on NCI-H82 cells; antibody 0.00128 nM

Binder	MFI
B1	118
B2	122
B3	117
B4	121

target: human DLL3 protein expressed on CHO-K1 recombinant cells (human DLL3 extracellular segment fused to EpCAM transmembrane and intracellular regions) (human) (UniProt Q9NYJ7); test: FACS, CHO-K1 hDLL3 cells, 0.16 nM antibody

Binder	MFI [MFI]
B1	936
B2	1030
B3	883
B4	980

target: mouse DLL3 on CHO-K1-mDLL3 cells (mouse) (UniProt O88516); test: FACS, CHO-K1-mDLL3 cells, 0.16 nM antibody

Binder	MFI [MFI]
B1	393
B2	424
B3	390
B4	361

target: human DLL3 protein expressed on CHO-K1 recombinant cells (human DLL3 extracellular segment fused to EpCAM transmembrane and intracellular regions) (human) (UniProt Q9NYJ7); test: FACS, CHO-K1 hDLL3 cells, 0.032 nM antibody

Binder	MFI [MFI]
B1	330
B2	339
B3	294
B4	341

target: monkey DLL3 on CHO-K1-cyno DLL3 cells (cynomolgus monkey); test: FACS, CHO-K1-cyno DLL3 cells, 4 nM antibody
Sequence (chain, as listed by the source limits assumed): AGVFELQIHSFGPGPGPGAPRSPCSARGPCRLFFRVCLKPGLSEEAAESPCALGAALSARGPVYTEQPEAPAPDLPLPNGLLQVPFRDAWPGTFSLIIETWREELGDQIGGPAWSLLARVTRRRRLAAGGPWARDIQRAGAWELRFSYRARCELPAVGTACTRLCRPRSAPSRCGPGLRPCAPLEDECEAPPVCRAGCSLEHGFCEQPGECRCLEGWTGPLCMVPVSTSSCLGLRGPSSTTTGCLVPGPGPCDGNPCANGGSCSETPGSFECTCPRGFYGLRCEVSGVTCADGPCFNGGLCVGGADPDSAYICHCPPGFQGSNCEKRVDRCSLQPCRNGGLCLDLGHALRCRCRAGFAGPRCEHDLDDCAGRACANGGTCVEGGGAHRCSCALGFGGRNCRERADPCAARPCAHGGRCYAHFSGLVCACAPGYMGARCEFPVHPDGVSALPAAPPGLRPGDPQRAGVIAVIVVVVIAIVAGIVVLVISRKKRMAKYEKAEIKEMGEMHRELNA

Binder	MFI [MFI]
B1	6660
B2	6610
B3	6080
B4	6500

target: mouse DLL3 on CHO-K1-mDLL3 cells (mouse) (UniProt O88516); test: FACS, CHO-K1-mDLL3 cells, 0.032 nM antibody

Binder	MFI [MFI]
B1	195
B2	199
B3	185
B4	186

target: human DLL3 protein expressed on CHO-K1 recombinant cells (human DLL3 extracellular segment fused to EpCAM transmembrane and intracellular regions) (human) (UniProt Q9NYJ7); test: FACS, CHO-K1 hDLL3 cells, 0.0064 nM antibody

Binder	MFI [MFI]
B1	160
B2	166
B3	153
B4	174

target: monkey DLL3 on CHO-K1-cyno DLL3 cells (cynomolgus monkey); test: FACS, CHO-K1-cyno DLL3 cells, 20 nM antibody

Binder	MFI [MFI]
B1	7040
B2	7090
B3	6530
B4	6970

target: mouse DLL3 on CHO-K1-mDLL3 cells (mouse) (UniProt O88516); test: FACS, CHO-K1-mDLL3 cells, 0.0064 nM antibody

Binder	MFI [MFI]
B1	131
B2	139
B3	131
B4	131

target: human DLL3 protein expressed on CHO-K1 recombinant cells (human DLL3 extracellular segment fused to EpCAM transmembrane and intracellular regions) (human) (UniProt Q9NYJ7); test: FACS, CHO-K1 hDLL3 cells, 0.00128 nM antibody

Binder	MFI [MFI]
B1	129
B2	134
B3	122
B4	137

target: monkey DLL3 on CHO-K1-cyno DLL3 cells (cynomolgus monkey); test: FACS, CHO-K1-cyno DLL3 cells, 0.8 nM antibody

Binder	MFI [MFI]
B1	4340
B2	4590
B3	4080
B4	4140

target: monkey DLL3 on CHO-K1-cyno DLL3 cells (cynomolgus monkey); test: FACS, CHO-K1-cyno DLL3 cells, 100 nM antibody

Binder	MFI [MFI]
B1	7380
B2	7380
B3	6850
B4	7310

target: mouse DLL3 on CHO-K1-mDLL3 cells (mouse) (UniProt O88516); test: FACS, CHO-K1-mDLL3 cells, 0.00128 nM antibody

Binder	MFI [MFI]
B1	121
B2	122
B3	121
B4	122

target: monkey DLL3 on CHO-K1-cyno DLL3 cells (cynomolgus monkey); test: FACS, CHO-K1-cyno DLL3 cells, 0.16 nM antibody

Binder	MFI [MFI]
B1	1190
B2	1330
B3	1150
B4	1140

target: monkey DLL3 on CHO-K1-cyno DLL3 cells (cynomolgus monkey); test: FACS, CHO-K1-cyno DLL3 cells, 0.032 nM antibody

Binder	MFI [MFI]
B1	415
B2	428
B3	371
B4	410

target: monkey DLL3 on CHO-K1-cyno DLL3 cells (cynomolgus monkey); test: FACS, CHO-K1-cyno DLL3 cells, 0.0064 nM antibody

Binder	MFI [MFI]
B1	178
B2	194
B3	169
B4	195

target: monkey DLL3 on CHO-K1-cyno DLL3 cells (cynomolgus monkey); test: FACS, CHO-K1-cyno DLL3 cells, 0.00128 nM antibody

Binder	MFI [MFI]
B1	131
B2	142
B3	125
B4	140

target: human DLL1 protein (Acro, Cat. No. DL1-H52H8) (human) (UniProt O00548); test: ELISA, coated hDLL1; maximum over 0.1, 1, 10, 100 nM antibody
Sequence (O00548 18-540 limits assumed): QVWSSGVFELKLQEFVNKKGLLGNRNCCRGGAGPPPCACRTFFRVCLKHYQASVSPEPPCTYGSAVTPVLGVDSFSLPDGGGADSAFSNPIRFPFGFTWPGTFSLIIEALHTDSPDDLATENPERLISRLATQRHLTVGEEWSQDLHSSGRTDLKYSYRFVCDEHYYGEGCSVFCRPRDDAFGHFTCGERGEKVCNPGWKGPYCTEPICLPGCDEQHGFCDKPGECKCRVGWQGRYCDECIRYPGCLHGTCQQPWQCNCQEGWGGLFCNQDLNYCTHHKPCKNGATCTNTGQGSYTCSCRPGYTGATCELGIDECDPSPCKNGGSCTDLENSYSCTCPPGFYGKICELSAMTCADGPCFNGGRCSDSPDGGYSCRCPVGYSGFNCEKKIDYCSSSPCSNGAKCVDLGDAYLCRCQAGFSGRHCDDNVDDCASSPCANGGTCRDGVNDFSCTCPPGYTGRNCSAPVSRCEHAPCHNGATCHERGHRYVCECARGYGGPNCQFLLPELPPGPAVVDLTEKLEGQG

Binder	Emax of OD450 nm binding value [OD450 nm]
B1	0.47
B2	0.47
B3	0.71
B4	0.43

target: human DLL4 protein (Acro, Cat. No. DL4-H5227) (human) (UniProt Q9NR61); test: ELISA, coated hDLL4; maximum over 0.1, 1, 10, 100 nM antibody
Sequence (Q9NR61 27-524 limits assumed): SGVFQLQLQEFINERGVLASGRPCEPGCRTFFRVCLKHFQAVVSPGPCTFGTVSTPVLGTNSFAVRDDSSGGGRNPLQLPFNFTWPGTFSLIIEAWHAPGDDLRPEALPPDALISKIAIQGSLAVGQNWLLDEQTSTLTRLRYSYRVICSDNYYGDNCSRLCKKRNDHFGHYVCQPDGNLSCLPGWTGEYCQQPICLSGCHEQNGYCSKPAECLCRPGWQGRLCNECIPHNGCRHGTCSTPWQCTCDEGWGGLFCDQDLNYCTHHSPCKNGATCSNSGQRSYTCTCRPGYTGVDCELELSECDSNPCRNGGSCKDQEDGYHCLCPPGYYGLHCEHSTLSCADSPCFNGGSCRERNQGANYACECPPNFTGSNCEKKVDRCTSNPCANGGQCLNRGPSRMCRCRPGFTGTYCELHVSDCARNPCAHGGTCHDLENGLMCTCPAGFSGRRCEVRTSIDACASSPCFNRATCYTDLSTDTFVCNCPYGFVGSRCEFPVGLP

Binder	Emax of OD450 nm binding value [OD450 nm]
B1	0.71
B2	0.64
B3	0.82
B4	0.67
